The values that follow are results of earlier work, collected in article PMC10830413.

For data set [1], the target named is LPHN3 (UniProt Q9HAR2).
Data set [2] has as its target LPHN3 (UniProt Q9HAR2). The source holds these as a separate data set.

pKd: −log10 of the molar value. Like-named read-outs stand apart in the source and are kept apart here.

Sequence of UniProt Q9HAR2 (Q9HAR2 20-862): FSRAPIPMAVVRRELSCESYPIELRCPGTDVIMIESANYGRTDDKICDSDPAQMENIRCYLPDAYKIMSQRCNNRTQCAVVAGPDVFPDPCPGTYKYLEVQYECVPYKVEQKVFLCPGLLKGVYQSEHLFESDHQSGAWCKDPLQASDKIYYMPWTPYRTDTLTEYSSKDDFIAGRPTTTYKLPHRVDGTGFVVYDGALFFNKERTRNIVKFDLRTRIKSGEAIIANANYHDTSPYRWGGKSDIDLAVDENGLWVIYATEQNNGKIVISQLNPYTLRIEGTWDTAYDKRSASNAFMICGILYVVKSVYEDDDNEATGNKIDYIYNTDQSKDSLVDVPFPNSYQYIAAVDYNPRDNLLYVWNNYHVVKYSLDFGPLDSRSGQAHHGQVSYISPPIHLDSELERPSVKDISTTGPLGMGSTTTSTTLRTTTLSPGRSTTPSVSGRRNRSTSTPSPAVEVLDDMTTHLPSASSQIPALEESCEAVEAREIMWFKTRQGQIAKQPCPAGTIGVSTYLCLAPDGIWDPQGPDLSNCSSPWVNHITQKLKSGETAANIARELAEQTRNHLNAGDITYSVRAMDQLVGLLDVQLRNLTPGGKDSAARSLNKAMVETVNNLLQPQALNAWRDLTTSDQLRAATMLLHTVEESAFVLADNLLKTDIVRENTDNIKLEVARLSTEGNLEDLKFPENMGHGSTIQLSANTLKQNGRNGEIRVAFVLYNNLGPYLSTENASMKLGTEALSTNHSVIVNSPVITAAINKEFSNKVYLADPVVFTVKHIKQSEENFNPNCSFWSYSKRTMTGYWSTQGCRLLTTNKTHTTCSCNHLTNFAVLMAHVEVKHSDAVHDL

For orientation: pKd means the Kd on a negative log10 scale, so that one unit is a factor of ten. As for FLRT3 (from UniProt Q9NZU0), the negative logarithm of the Kd (pKd) in data set [1] was 7.82.

For TENM2 (from UniProt Q9NT68), the negative-log Kd (pKd) in data set [2] was 6.30.
